Test results taken from the supplement of paper PMC9170038.

Tested on: K4 kissing-loop RNA reporter
Assay: apparent KD of K4 kissing-loop reporter; higher = weaker reporter binding
Conditions: Eterna round: R107
Experimental: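 RNA-MaP round R107: designed RNA switches with theophylline, tryptophan, arginine or FMN aptamers are transcribed on-chip within common flanks. They are titrated with a labelled K4 kissing-loop RNA reporter in RNA-MaP buffer (100 mM Tris pH 7.5, 80 mM KCl, 4 mM MgCl2), without ligand or with the indicated ligand. Median apparent KD per design.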

[1] = input ligand: theophylline 20 uM
[2] = input ligand: tryptophan 2.4 mM
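Further: bound reporter read as fluorescence of individual clusters on recovered sequencing chips by microscopy, with normalized cluster intensities fitted with a binding model.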

Sequence | apparent KD of K4 kissing-loop reporter (input ligand: FMN 200 uM) | apparent KD of K4 kissing-loop reporter (input ligand: arginine 13.2 mM) | apparent KD of K4 kissing-loop reporter (input ligand: none) | apparent KD of K4 kissing-loop reporter [1] | apparent KD of K4 kissing-loop reporter [2]
UUGCGGAGUGAUGUUUCGGGAUAUCGGGAAGGAGCGCCGAUAACGGCAGGUAGGUCGCCCGGUCCAGUGAUGUUGGGCAUGCAUU [Exclusion Arg A GF 23] | 200 nM | 136 nM | 212 nM | 201 nM | 171 nM
UUGGCAGUGAUGUUGCCAGACAUCACCGAAGGAGCGGGCGAAAGCCCAGGUAGGUCGCGGUAGCGGAGUGAUUCUCCGCGAGGGC [Same State Arginine A GF 23] | 957 nM | 621 nM | 937 nM | 759 nM | 829 nM
UUUAAAUAUAGUGAUGUUAUAUAACAAUGACGAGGACCGGUACGGCCGCCACUCGAGAGAGAUAAUGGUCGUUCGAAUCGAACGC [AstrosSSTryA#6] | 599 nM | 779 nM | 672 nM | 574 nM | 410 nM
UUUAUAUAGUCGGCCGCCACUGAUUUUUUUAUAUGUUUAUGUUUAUACGAGUGAUGUUCGAUAUACAGGACCGGGACUUUGGUUA [JR_SSTryptoB_Sub019] | 145 nM | 207 nM | 159 nM | 224 nM | 115 nM
UUUAUAUAGUCGGCCGCCACUGGAUUAAUAUUUGUAUAAUCUAGAUCAAAGUGAUGUUUUGAGUCCAGGACCGGGACAUUUGUUA [JR_ExcTryptoB_Sub006] | 539 nM | 391 nM | 486 nM | 525 nM | 427 nM
UUUAUAUUCUGAGGAUAUCGUAUUAAUGAAGUGAUGUUUCAGUAUAUUCUAAUUAUAUAUAAUUUUCGAGAAGGCAGUAUUAUUU [JR_Nu3_SSFMNB_Sub028] | 187 nM | 243 nM | 246 nM | 320 nM | 196 nM
UUUCGUUUCGUCUGACAUAAUUGGCUAGAAGGAGCGGUAAAAUUACCAGGUAGGUCGCUAGCCCAGUGAUGUUGGGACUAGCGUA [Edries] | 124 nM | 107 nM | 114 nM | 116 nM | 125 nM
UUUCUAUCGGGAAGGAGCGUGAAUGAUAAUGGAUAUAGUGAUGUUAUAUAUAAGAACGAAUCGCAGGUAGGUCGCCCGGAUGACU [SSArgB.R] | 346 nM | 357 nM | 323 nM | 389 nM | 169 nM
UUUGGAGAGGGAAGGAGCGUGAAAGAGAAAGAAUAUAGUGAUGUUAUAUAGAAGAAAGAAUCACAGGUAGGUCGCCCGGAGGAGG [SSArgB.D] | 707 nM | 865 nM | 661 nM | 990 nM | 575 nM
UUUGUAUAGGGAAGGAGCGUGAAUGAUAAUGAAUAUAGUGAUGUUAUAUAUAAGAAAGAAUCACAGGUAGGUCGCCCGGAUGAGU [SSArgB.L] | 432 nM | 323 nM | 477 nM | 447 nM | 356 nM
UUUUGCUAGCGAAACGCUAGCUUAACAGAUACCAGUCGCGAAAGCGACCCUUGGCAGCUGCUGAGUGAUGUUCAGGUGAGAGUUA | 387 nM | 221 nM | 344 nM | 301 nM | 312 nM
UUUUUGGUUUAGAGUGAUGUUCCUUGUAUUCGAGGACCGGUACGGCCGCCACUCGAAUAGAAAAGAAAAGAAAAGAGUGAUGUUU [BDazzled - #3 SS Tryptophan A] | 308 nM | 229 nM | 292 nM | 356 nM | 252 nM
